Experimental data taken from patent US10975360B2, “Process for the modification of alkanes, fatty acids and fatty alcohols” (priority 2016, dated 2021).

Type: cell-based, P. pastoris
Description: Precultures of P. pastoris transformants were prepared in buffered complex glycerol media (BMGY). BMGY contained: 10 g/l yeast extract, 20 g/l peptone, 3.4 g/l yeast nitrogen base, 10 g/l ammonium sulfate, 100 mM potassium phosphate (pH 6), 0.4 mg/l biotin and 1% (v/v) glycerol. Erlenmeyer flasks (500 ml) containing 50 ml BMGY media were inoculated with single colonies of 24 h old YPD-agar cultures of P. pastoris KM71 mut^s3/CYP505E3 and incubated at 30° C. and 225 rpm for 24 h. The cultures were harvested using pre-weighed centrifuge tubes at 3000 g for 5 min and stored on ice until further use.
The main cultures for expression were prepared in buffered complex methanol media (BMMY) containing 10 g/l yeast extract, 20 g/l peptone, 3.4 g/l yeast nitrogen base, 10 g/l ammonium sulfate, 100 mM potassium phosphate (pH 6), 0.4 mg/l biotin and 0.5 or 1% (v/v) methanol. Harvested cells from precultures were resuspended in BMMY media to final concentration of 1 g WC per 40 ml (appx. 25 g/l). The resuspended cultures (100 ml) were transferred to 500 ml Erlenmeyer flasks and incubated at 25° C. and 225 rpm for 24 h. The cultures were then harvested at 3000 g for 5 min using pre-weighed centrifuge tubes.
Different transformants of Pichia pastoris KM71 harbouring the CYP505 genes for SEQ ID Nos 1 to 7 and 9 to 12 were grown and harvested as described above. The harvested cells were resuspended to give 1 g wet cell weight in 40 ml MOPS buffer (200 mM, 100 mM glucose, 100 mM glycerol, pH 8) and 1 ml aliquots of these cell suspensions were transferred to 40 ml amber vials. Dodecane, 1-dodecanol and 1-tetradecanol were added neat to these cell suspensions to give final concentrations of 200 mM in the case of the alcohols and 1 M in the case of dodecane while in the case of dodecanoic acid 20 μl of a 500 mM stock solution (in DMSO) was added to give a final concentration of 10 mM. Transformants harbouring the CYP505 genes for SEQ ID Nos 1 to 4 were tested for the biotransformation of 1-dodecanol, 1-tetradecanol, dodecanoic acid, tetradecanoic acid and dodecane, while those harbouring the CYP505 genes for SEQ ID Nos 5 to 7 and 9 to 12 were only tested for the biotransformation of 1-dodecanol and dodecanoic acid. The biotransformations were incubated at 25° C. and 225 rpm for 24 h. Extractions were performed using ethyl acetate (500 μl×2). The extracts were analyzed using GC/MS.

B1: CYP505Ao: CYP505 cytochrome P450 monooxygenase from Aspergillus oryzae, SEQ ID No 9 (protein, listed as Aspergillus oryzae)
chain: MRQNDNEKQICPIPGPQGLPFLGNILDIDLDNGTMSTLKIAKTYYPIFKFTFAGETSIVINSVALLSELCDETRFHKHVSFGLELLRSGTHDGLFTAYDHEKNWGLAHRLLVPAFGPLRIREMFPQMHDIAQQLCLKWQRYGPRRPLNLVDDFTRTTLDTIALCAMGYRFNSFYSEGDFHPFIKSMVRFLKEAETQATLPSFISNLRVRAKRRTQLDIDLMRTVCREIVTERRQTNLDHKNDLLDTMLTSRDSLSGDALSDESIIDNILTFLVAGHETTSGLLSFAVYYLLTTPDAMAKAAHEVDDVVGDQELTIEHLSMLKYLNAILRETLRLMPTAPGFSVTPYKPEIIGGKYEVKPGDSLDVFLAAVHRDPAVYGSDADEFRPERMFDEHFQKLPANSWKPFGNGKRSCIGRAFAWQEALMILALILQSFSLDLVDRGYTLKLKESLTIKPDNLWAYATPRPGRNVLHARLALQTNSTHPEGLMSLKHETVESQPATILYGSNTGTCEALAHRLAIEMSSKGRFVCKVQPMDEIEHRRLPRGQPVIIVTGSYDGRPPENARHFVKWLQSLEGNDLEGIQYAVFGCGLPGHHDWSTTFYKIPTLIDTIMAEHGGARLAPRGSADTAEDDPFVELESWSERRVWPGLEAAFDLVRHNSSDGTGKSTRITIRSPYTLRAAHETAVVHQVRVLTSAETTKKVHVELALPDTINYRPGDHLAILPLNSRQSVQRVLSLFQIGSDTILYITSSSATSLPTDTPISAHDLLSGYVELNQVATPTSLRSLAAKATDEKTAEYLEALATDRYTTEVRGNHLSLLDILESYSVPSIEIQHYIQMLPPLRPRQYTISSSPRLNRGQASLTVSVMERADIGGPRNCAGVASNYLASCTPGSILRVSLRHANPDFRLPDESCSHPIIMVAAGSGIAPFRAFVQERSVRQKEGIILPPAFLFFGCRRADLDDLYREELDAFEEQGVVTLFRAFSRAQSESHGCKYVQDLLWMERVRVKTLWGQDAKVFVCGSVRMNEGVKAIISKIVSPTPTEELARRYIAETFI
ω-7 hydroxylase activity C12FA: − | ω-7 hydroxylase activity C12ol: −

B2: CYP505Hv: CYP505 cytochrome P450 monooxygenase from Hypocrea virens, SEQ ID No 10 (protein, listed as Hypocrea virens)
chain: MKPAKNPNLVEIPKPKGLPVIGSLHHIDLESPLFSLIELIQPLGPICQLTFGSELNIFVSSIELLNELCDESRFQKIVTAELEKLRHVVHDGLFTARNEERNWEIAHRILMPVFGTIKIREMFPEMKDLAQQLCLKWARYGEEYVIDVTADFTRLTLDTLALCTMGFRFNSFHNGTVLHPFVDSMVRTLKEASVQAALPNFINSLRKKSWRRYEKDTAFMRKLCQDIIDKRKSQTDTDSHDLLAALLRGRDPKTGEGLSDDSIIDNMLTFLIAGHETTSGLLSFAMYYLLANPQTMEKARQEVDEVSQGSPIAVEHLSKLPYLNAVLKETLRLQPTAPGFILSSPKDEIIGGKYLIPANIPIGVLLHMVHLDKAVYGEDAAEFKPERMLDENFNKLPPNSWKPFGNGMRGCIGRAFATQEALLIVAMLLQSFTFEMADPGYKLKIKETLTVKPDNFRMKAKLRRGGTATDFQRELQSLGSVGAKLSSTPSVTSAQTGGGDKKPLTILYGSNSGTCEALAYRLASDATLHGFYARKIAPLNAARNSLPKSEPVIILAASYDGLPSDNAEEFFDWLNTAEKDSLKGVSYSVFGCGHRDWVATFQRVPILIDDLLQRAGAERFANRGLADSAVMDLFVELEKWTTDSVWPAISQTDGKQDNDGEGKLISSLLKVEFSQPRQLQQYSHLVEATVMESRSLTTPSAIGKKMHVDIQLPSGVSYHPGDHLLVLPVNPIRNVKRVLSRFHLTWDTIVRASGNESVRIPIETAMTVHELLSSYFELAQPATPRDIRVLAAAAEDEATKQVLNNLATTSYLEDIQEKKTSLLDLLEKFPEISIAFGTYLTLLPSLRLRTYSISSSPSWNSSRATLTLSVLDEPATTPGSKRYLGVASNHLAGLTPGDLIHVATRPVKGIFQMPADLSKAPTIMIAAGAGLAPFRGFIQERAYQQQNGVQLAPAALFFGCRSSHDDLYRSELDAFESSGVIRVFRAYSREDVGSKSNTRKGYVQDSLQAEKDVFVQLWNAGAKVYVCGSVKMASQVKDLVANLVYTAEPMDAQKEFTPQEWFKRFEKTRYAAEIFT
ω-7 hydroxylase activity C12FA: − | ω-7 hydroxylase activity C12ol: −

B3: CYP505Om: CYP505 cytochrome P450 monooxygenase from Oidiodendron maius, SEQ ID No 11 (protein, listed as Oidiodendron maius)
chain: MTKKNHALIPIPGPSVWPLLGNLFDIDTEHGLASVLEMGRSYGDIFQLVLGGNKLVFLQTHALFDEVCDESRFCKVVVSGLGNLRAGVNDGLFTAHDGEHNWGVAHRIIMPIFGPIKIRETLGGMKDVCQELSLKWARYGPDHRIDIAGDLTRLTLDTIAFCTMGYRFNSFYRNSDVHPFVKSMVGFLREADKSSMIPEYLNAFRWKARRSFLGDIASMREMSMMILNLRRGNPSDRDDLLNALLHGRDPKTGEGMSDESIINNLITFLVAGHETTSGALSFVFYYLLTNPESLKNAREEVDRVIGAGNITADHLSKLPYIDAVLREALRLNPTGPAITLGAREDTTLGGKYAVKKGEPVLCMFHNIHRDKKVYGEDADEWKPERMMDENFNKLPKNAWKPFGNGTRGCIGRAFAWQESQLVIASILQNFDLTLDNPDYKLEIVETLTIKPGNFYVRAKLRSGRTPRELCGFSNPISTNIQIKNGTIAPANDGQVGNSTPVTILYGSNSGTCEALAHRLARDAPSYGYSVTTVATLDSVIGILPRAKDELVVIITCSYDGLPADNAVRFCNWLKTLDEDALGGMPFAVFACGHHDWAKTFYKVPIMIDELLARAGAHRVAQMGKANSAVSDMFSDLENWEDEHLWSSSSAAGNETVDNVARTEVKQDITITNPRARALHHNAVECIVSETHKLSESGSALKYHVEIQLPANMKYAPGDHLSVLPINPRQNVRRALARFHLAGDSVLSVARIGHMGTLGQETLSAFDVFASYVELSQPATRRNIATLLSVTPEGEGRYELAELGGAAFESQIRDMRVSVLDLLERYKAIKLCVGAFIDMLPPLRVRTYSISSSALWKPSHASLTISVLAQPALSGQGSFLGVASNFLADLVPGDAVHFTIRPCKKQFHLPDDASAHPIIMVAAGSGIAPFRGFIQDRALQRRNGVQLQPAILFFGCRGSKQDDLYRQELDEFEAEGVVSVRRAFSGEETVSISESRMYVQDRMWADRAEVIQLWNLGAKIYVCGGINMADGVREIFNEIVGPTEVDGKRGAESLNKLSEETMSARYVAEIFSQT
ω-7 hydroxylase activity C12FA: − | ω-7 hydroxylase activity C12ol: −
